Assay [1] has as its system A549 human non-small cell lung cancer line. Put plainly: Growth in soft agar. Format: cell-based. Conditions: transfected A549, 3 weeks; mean over three experiments. An excerpt:
(§1) Figure 6 Talin R8 Mutations Disrupt the Interaction with DLC1 and Affect Its Biological Activity (A) Wild-type GST-talin fragments pull down more DLC1 than the 2E mutants. Extracts of HEK293T cells transfected with GFP-DLC1 and GST-talin constructs were subjected to pull-down assays with glutathione beads followed by immunoblotting with anti-GST and anti-DLC1 on the same membrane (top). The transfected GFP-DLC1 in each sample is shown by the anti-DLC1 blot (bottom) as a loading control. (B) Wild-type GST-talin fragments compete efficiently with endogenous talin to form a complex with DLC1. The supernatants collected after pull-down assay from (A) were reused for co-immunoprecipitation with an anti-talin antibody and blotted with anti-DLC1 (top). A small aliquot from each lane was blotted for endogenous talin as a loading control (bottom). (C) Co-expression of GST or GST-talin fragments (wild-type or 2E mutant) with GFP DLC1 in A549 cells. […] Transfected A549 cells were cultured in G418 for 3 weeks, and colonies counted and quantitated (top). […] Transfected A549 cells were grown for 3 weeks in soft agar, and colonies counted and quantitated (top). […] Lysates from migrated cells were quantitated (top), and representative microscopic images of the migrated cells are shown (bottom). […]

For assay [2] the test system is unchanged. In words: Transwell cell migration assay. The class given is cell-based. Conditions: transfected A549, transwell, 24 h; mean over three experiments.
Excerpt: as §1

B1: GST-R8: GST-tagged talin R8, amino acids 1,453–1,580 (protein)
chain: NSQAGQQGLVEPTQFARANQAIQMACQSLGEPGCTQAQVLSAATIVAKHTSALCNSCRLASARTANPTAKRQFVQSAKEVANSTANLVKTIKALDGDFTEENRAQCRAATAPLLEAVDNLSAFASNPE
modifications: left off: GST, end not stated, kept
With B1, the “growth in soft agar” value in assay [1] is given as “no detectable biological activity”. The cell migration entry in assay [2] is “no detectable biological activity”.

For the origin of these results see publication PMC4938799, “LD Motif Recognition by Talin: Structure of the Talin-DLC1 Complex” (Structure(London, England:1993), 2016).
